A word on the EC50: it is the concentration that produces a half-maximal response. A word on the IC50: it is the concentration that inhibits the measured activity by half. High values mean a need for much substance, low ones inhibition by little substance. One may read the Kd as the free concentration of one partner at which half of the binding sites on the other are occupied at equilibrium, for simple one-to-one binding. What is called koff is the first-order rate constant of dissociation. For orientation: kon means a measure of how fast the partners come together.

A value given as a limit tells only on which side of the number the result lay.

Data on four molecules can be found in patent US20250270343A1 (Alector, published 2025).

In assay [1] the target is T1, soluble human GPNMB-Fc polypeptide (human, UniProt Q14956 23-498, limits assumed).
T1 construct: also called huGPNMB-Fc; not shown: Fc domain
T1 sequence (looked up): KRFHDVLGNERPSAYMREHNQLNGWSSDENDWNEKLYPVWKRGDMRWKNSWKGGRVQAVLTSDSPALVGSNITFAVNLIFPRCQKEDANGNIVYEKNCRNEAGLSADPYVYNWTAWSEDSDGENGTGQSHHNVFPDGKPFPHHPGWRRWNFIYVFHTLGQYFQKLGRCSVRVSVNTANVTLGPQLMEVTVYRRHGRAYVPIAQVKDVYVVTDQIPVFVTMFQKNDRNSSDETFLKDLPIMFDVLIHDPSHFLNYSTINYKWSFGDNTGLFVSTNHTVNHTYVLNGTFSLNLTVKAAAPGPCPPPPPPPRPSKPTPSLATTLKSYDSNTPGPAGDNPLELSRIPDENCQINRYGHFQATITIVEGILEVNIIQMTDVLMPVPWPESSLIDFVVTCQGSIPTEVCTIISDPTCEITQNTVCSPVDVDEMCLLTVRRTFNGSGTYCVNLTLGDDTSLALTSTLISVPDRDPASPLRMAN
As to the kind of experiment: FACS, Fab2 enhancing huGPNMB-Fc binding to SVEC4-10 cells. The protocol: (§1) Purified recombinant Fab2 fragments of select anti-GPNMB antibodies of the present disclosure were produced through transient transfection and purified. Briefly, 2 ug/mL soluble mouse or human GPNMB-Fc diluted in binding buffer was pre-complexed with increasing concentrations of anti-GPNMB Fab2 fragments in 96-well plates. Subsequently, 100,000 SVEC4-10 cells were added per well and incubated on ice for 30 minutes. Soluble moGPNMB-Fc or huGPNMB-Fc bound to cell surface was detected with fluorescent anti-human IgG1 secondary antibody and measured on FACSCanto. IC50 and EC50 values based on changes in MFI values were calculated for each antibody.
On the technique in general: A flow cytometer gives signals particle by particle.

Assay [2] addresses T2, soluble mouse GPNMB-Fc polypeptide (Fc of human IgG1 or mouse IgG2A, not specified for the assay) (mouse, UniProt Q99P91 23-502).
T2 construct: extracellular domain; also called moGPNMB-Fc; mGPNMB; not shown: Fc region of human IgG1 or mouse IgG2A; in the Fab2 assay detected with anti-human IgG1 secondary antibody
T2 sequence (looked up): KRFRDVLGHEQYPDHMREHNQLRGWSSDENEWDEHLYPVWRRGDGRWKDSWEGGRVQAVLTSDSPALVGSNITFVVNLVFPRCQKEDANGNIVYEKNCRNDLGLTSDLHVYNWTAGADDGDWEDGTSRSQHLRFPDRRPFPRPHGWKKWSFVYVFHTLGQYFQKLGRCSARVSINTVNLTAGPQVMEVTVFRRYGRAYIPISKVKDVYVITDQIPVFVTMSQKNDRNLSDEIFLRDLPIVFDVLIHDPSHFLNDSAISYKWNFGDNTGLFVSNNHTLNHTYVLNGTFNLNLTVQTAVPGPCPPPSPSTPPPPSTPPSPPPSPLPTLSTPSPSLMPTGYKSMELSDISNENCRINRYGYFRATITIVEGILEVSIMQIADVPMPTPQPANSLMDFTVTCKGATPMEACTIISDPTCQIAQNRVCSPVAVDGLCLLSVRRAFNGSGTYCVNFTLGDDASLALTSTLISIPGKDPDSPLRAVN
Nature of the assay: FACS, Fab2 blocking moGPNMB-Fc binding to SVEC4-10 cells. How it is done: as §1

Assay [3] has as its target T3, soluble mouse GPNMB (recombinant extracellular domain) (mouse, UniProt Q99P91 23-502).
T3 construct: also called moGPNMB; not shown: C-terminal polyhistidine or Avi-His tag
T3 sequence: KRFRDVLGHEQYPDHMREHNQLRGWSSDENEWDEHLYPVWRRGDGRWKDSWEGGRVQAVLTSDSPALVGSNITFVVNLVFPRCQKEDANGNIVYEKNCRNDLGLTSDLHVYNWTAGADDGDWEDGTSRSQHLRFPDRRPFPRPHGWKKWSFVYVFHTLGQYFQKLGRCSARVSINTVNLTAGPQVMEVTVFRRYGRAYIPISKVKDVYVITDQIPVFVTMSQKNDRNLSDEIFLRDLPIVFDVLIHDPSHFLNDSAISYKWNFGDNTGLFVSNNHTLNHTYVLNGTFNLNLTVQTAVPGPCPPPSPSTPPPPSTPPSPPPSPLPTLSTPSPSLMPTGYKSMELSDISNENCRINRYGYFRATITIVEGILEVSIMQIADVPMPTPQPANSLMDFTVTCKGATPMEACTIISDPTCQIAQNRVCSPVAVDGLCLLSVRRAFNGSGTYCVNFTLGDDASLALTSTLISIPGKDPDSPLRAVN
Nature of the assay: SPR Carterra, Ab immobilized. How it is done:
Binding kinetics of human anti-GPNMB IgG1 antibodies of the present disclosure to human, cynomolgus, and mouse GPNMB were evaluated using a Carterra LSA instrument (Carterra, Salt Lake City, UT). […] A HC200M sensor chip (Carterra) was activated using the single channel flow cell with a 7-minute injection of a 1:1:1 mixture of 100 mM MES pH 5.5, 100 mM sulfo-NHS, 400 mM EDC (all reconstituted in MES pH 5.5; 100 μl of each mixed in vial immediately before running assay). After switching to the multi-channel array flow cell, the antibodies were injected over the activated chip in a 96-spot array for 15 minutes. The remaining unconjugated active groups on the chip were then blocked by injecting 1M Ethanolamine pH 8.5 (Carterra) for 7 minutes using the single channel flow cell.
After priming with running buffer (HBS-EP+, Teknova) with 0.5 mg/ml BSA (Sigma), the immobilized anti-GPNMB antibodies were tested for their ability to bind to several forms of recombinant GPNMB extracellular domain, including human, cynomolgus, and mouse orthologs as described above. Estimates of affinity were generated by injecting each analyte over the entire antibody array using the single channel flow cell. GPNMB analytes were diluted to 2.5, 7.4, 22, 67, 200, and 600 nM in running buffer, and injected in serial from lowest to highest concentration without regeneration. Two buffer blanks were run between each series (one species per series). Data were processed and analyzed using Kinetics high-throughput kinetics analysis software (Carterra).

Assay [4] has as its target T4, mouse GPNMB endogenously expressed on B16F10 cells (mouse, UniProt Q99P91 23-574).
T4 construct: whole, on cells; also called moGPNMB
T4 sequence (looked up): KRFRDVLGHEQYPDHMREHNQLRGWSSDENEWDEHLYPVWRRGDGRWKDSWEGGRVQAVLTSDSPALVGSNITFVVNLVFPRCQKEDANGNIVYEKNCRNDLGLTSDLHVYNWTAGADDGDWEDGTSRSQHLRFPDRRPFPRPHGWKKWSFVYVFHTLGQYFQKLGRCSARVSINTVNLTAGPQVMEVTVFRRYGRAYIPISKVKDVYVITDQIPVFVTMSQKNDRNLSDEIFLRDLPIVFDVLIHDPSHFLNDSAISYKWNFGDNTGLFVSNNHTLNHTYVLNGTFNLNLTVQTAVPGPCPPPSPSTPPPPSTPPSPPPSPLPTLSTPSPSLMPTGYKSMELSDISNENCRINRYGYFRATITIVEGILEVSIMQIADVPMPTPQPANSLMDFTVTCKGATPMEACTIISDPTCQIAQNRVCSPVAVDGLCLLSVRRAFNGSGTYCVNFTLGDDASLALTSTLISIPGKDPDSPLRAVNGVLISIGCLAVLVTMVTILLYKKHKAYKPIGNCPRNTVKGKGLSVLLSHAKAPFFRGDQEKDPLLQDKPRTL
Nature of the assay: FACS titration, B16F10 cells. The protocol:
Cell-based binding measurements were also performed to measure the apparent affinities of anti-GPNMB antibodies of the present disclosure to cell-surface expressed GPNMB. Serial dilutions of the monoclonal anti-GPNMB antibodies were added to 100,000 Freestyle293-huGPNMB+ or B16F10 cells and allowed to achieve binding equilibrium at 4° C. After addition of fluorescently labeled secondary antibody and brief washing steps, MFI values as a function of titrated antibody concentration was recorded via FACS analysis. Curves were fit using nonlinear regression analysis with Graphpad Prism 6 software.

Assay [5] has as its target T5, soluble mouse GPNMB-Fc polypeptide (mouse IgG2A Fc) (mouse, UniProt Q99P91 23-502).
T5 construct: extracellular domain; bought (R&D System); also called moGPNMB-Fc; mGPNMB-Fc; not shown: Fc region of mouse IgG2A
T5 sequence (looked up): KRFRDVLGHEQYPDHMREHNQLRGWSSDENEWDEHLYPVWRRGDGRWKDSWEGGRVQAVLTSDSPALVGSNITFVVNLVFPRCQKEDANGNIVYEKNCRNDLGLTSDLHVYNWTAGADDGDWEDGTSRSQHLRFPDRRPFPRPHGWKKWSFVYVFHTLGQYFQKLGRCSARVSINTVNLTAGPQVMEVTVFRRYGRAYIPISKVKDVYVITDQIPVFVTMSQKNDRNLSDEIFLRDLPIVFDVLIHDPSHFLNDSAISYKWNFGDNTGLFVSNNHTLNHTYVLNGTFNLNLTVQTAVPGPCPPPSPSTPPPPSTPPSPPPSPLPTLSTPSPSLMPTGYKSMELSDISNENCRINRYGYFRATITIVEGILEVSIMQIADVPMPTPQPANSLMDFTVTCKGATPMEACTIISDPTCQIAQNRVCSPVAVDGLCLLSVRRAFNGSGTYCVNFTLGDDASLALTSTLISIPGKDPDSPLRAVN
Nature of the assay: FACS, enhancing of moGPNMB-Fc binding to SVEC4-10 cells. The protocol: Purified full-length anti-GPNMB antibodies of the present disclosure were evaluated for their ability to block binding of moGPNMB-Fc to SVEC4-10 cells to determine the ligand blocking potency of each anti-GPNMB monoclonal antibody. Briefly, 2 μg/mL moGPNMB-Fc (mouse IgG2A Fc) diluted in binding buffer was pre-complexed with increasing concentrations of anti-GPNMB antibody of the present disclosure or human IgG1 isotype control antibody in 96-well plates. Subsequently, 100,000 SVEC4-10 cells were added per well and incubated on ice for 30 minutes. Soluble moGPNMB-Fc bound to cell surface was detected with fluorescent anti-mouse IgG2A secondary antibody and measured on FACSCanto. (FIG. 5A and FIG. 5B) IC50 values (for antibodies that block moGPNMB-Fc cell binding) and EC50 values (for antibodies that enhance moGPNMB-Fc cell binding) based on changes in MFI values were calculated (average+standard error) for each anti-GPNMB antibody and listed in Table 6. In Table 6, NA indicates no activity. […] In all cases, certain anti-GPNMB antibodies of the present disclosure blocked soluble GPNMB binding to cells, while other anti-GPNMB antibodies of the present disclosure enhanced soluble GPNMB binding to cells.

The target of assay [6] is T4, mouse GPNMB endogenously expressed on …. Nature of the assay: FACS, B16F10 cells. How it is done: Recombinant anti-GPNMB antibodies of the present disclosure were examined for their ability to bind human and/or mouse GPNMB expressed on Freestyle293-huGPNMB+ or B16F10 cells, respectively. B16F10 cells are a murine melanoma cell line from a C57BL/6J mouse that endogenously express high levels of mouse GPNMB. The antibodies were also tested for their ability to bind to a human macrophage cell line (U937 cells) engineered to express human GPNMB. Cells were harvested, plated at 100,000 cells/well in a 96-well round bottom plate, and incubated in 100 μl FACS buffer (PBS containing 2% FBS, 2 mM EDTA) containing anti-GPNMB monoclonal antibodies of the present disclosure for 30 minutes on ice. Cells were then washed and incubated in 100 ul FACS buffer containing 1 μg/ml APC-conjugated anti-human IgG secondary antibody for 30 minutes in ice. Cells were washed twice in cold FACS buffer and acquired on a BD FACS Canto. Data analysis and calculation of MFI values was performed with FlowJo (TreeStar) software version 10.0.7. […]

B1: recombinant Fab2 fragment of anti-GPNMB antibody GPN-61 (other)
VH: DVQLQESGPGLVKPSQTVFLTCTVTGISITTGNYRWSWIRQFPGNKLEWIGYIYYSGTITYNPSLTSRTTITRDTPKNQFFLEMSSLTAEDTATYFCARDLRHWYFDVWGTGTTVTVSS
VL: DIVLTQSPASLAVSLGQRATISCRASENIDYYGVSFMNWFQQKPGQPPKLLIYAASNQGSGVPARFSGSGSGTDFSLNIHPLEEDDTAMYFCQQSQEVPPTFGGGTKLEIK
notes: also called GPN-61 Fab2
For B1, the EC50 in assay [1] amounted to 9.05 nM. This molecule came in with an IC50 in assay [2] of 1.56 nM.

B2: recombinant Fab2 fragment of anti-GPNMB antibody GPN-43 (other)
VH: EVQLQQSGPELVKPGASVKISCKASGYTFTDYYMNWVRQSHGKSLEWIGDINPYHGGSTYNQKIKVKATLTVDKSSSTAYMELRSLTSEDSAVYYCARNWPYFDYWGQGTTLTVSS
VL: DIQMTQSPASLSASVGETVTITCRASENIYSFLVWYQQKQGKSPQLLVYNAKTLAEGVPSRFSGSGSGTQFSLKISSLQPEDFGSYYCQHHFGTPPYTFGGGTKLEIK
notes: also called GPN-43 Fab2
With B2, in assay [2], the IC50 was determined as 9.42 nM. This counts as single-digit nanomolar.

B3: anti-GPNMB antibody GPN-33 (antibody, human IgG1, V domains shown)
VH: EVQLVESGGSLVQPGGSLKLSCVASGYTFSNYWMDWVRQTPGKSLEWIGEINTDGSKTNYAPSIKDRFTISRDNAKSTLYLQMSNVKADDTAIYYCTRGPGAWGQGTSVTVSS
VL: DIVMTQTPLSLSVAIGQSASISCKSSQSLKFSDGKTYLNWVFQSPGQSPKRLIYQVSKLDSGVPDRFSGTGSETDFILKISRVEAEDLGVYYCCQGSYSPWTIGGGTKLELK
notes: chimeric
Take B3: in assay [3], the Kd was less than 0.3 nM, the koff was less than 1e-05 s⁻¹ and the kon came to 40000 M⁻¹ s⁻¹. Also, it took 17.8 nM to reach a half-maximal effect in assay [4] (EC50). Further, in assay [5], the EC50 is 0.79 nM. Besides, the “MFI fold over background” value in assay [6] is 20.9 fold.

B4: recombinant Fab2 fragment of anti-GPNMB antibody GPN-48 (other)
VH: QVQLQQSGPELVKPGASVKLSCRASGYGFSSFWMNWVKQRPGKGLEWIGRIYPGKGDTLYNGKFKDKATLTADESSSTAYMQLSSLTSEDSAVYFCARSIYYYDYWYFDVWDTGTTVTVSS
VL: DIVMTQSHKFMSTSVGDRVNITCKASQDVNSAIAWYQQKPGQSPKLLIYSASYRFIGVPDRFTGSGSGTGFTFTISSVQAEDLAVYYCQQHYTTPLTFGAGTKLELK
notes: also called GPN-48 Fab2
In assay [2], B4 came in with an IC50 of 2.33 nM. This lies in the single-digit nanomolar range.
